Experimental data reported in patent US8895526B2, “Identification of RNAI targets and use of RNAI for rational therapy of chemotherapy-resistant leukemia and other cancers” (Cold Spring Harbor Laboratory, priority 2009, dated 2014).

Key:
[1] = tested on: mouse liver carcinoma cells; test: Subcutaneous liver carcinoma tumor growth after doxycycline induction of shRNA; type: in vivo, nude mice; details: doxycycline 2 mg/ml in drinking water from two weeks after injection
Protocol: One million mouse liver carcinoma cells transduced with an inducible shRpa3.457 were injected subcutaneously in nude mice. Two weeks after injection, mice were either treated with doxycycline 2 mg/ml in their drinking water, or left untreated. Change in tumor volumes was measured following treatment.

[2] = tested on: Mouse hepatocellular carcinoma cells (Hepa1.6); test: Hepa1.6 colony formation assay; type: cell-based; details: high MOI, low density plating, crystal violet
Protocol: (FIG. 8A) Mouse hepatocellular carcinoma cells (Hepa1.6) were transduced at high MOI with shRNAs targeting replication genes. Cells were plated at low density, stained with crystal violet, and staining was quantified on a Licor scanner. Values are normalized to empty vector control. (FIG. 8B) Representative scans of colony formation assays of cells infected with an antiproliferative shRNA (top—shRpa3.457) or empty vector control (bottom).
An assay similar to that described in Example 1 was used to test the effect of RNAi molecules against genes encoding DNA replication proteins in mouse cancer cells (Hepa1.6). Similar results in mouse cells were observed as compared to human cells (FIG. 8 and FIG. 9). For example, mouse tumors regress upon induction of RNAi against Rpa3 (FIG. 17).

Hepa1.6 cells = test: In vitro competition assay in Hepa1.6 cells; type: cell-based, mouse; details: five passages 1:8
Text: Two days after transduction with a GFP-tagged vector, the number of fluorescent cells was quantified. Cells were passaged 1:8 five times, and the number of GFPpositive transduced cells was quantified at each passage.

B1: shRpa3.457: shRNA, SEQ ID NO: 60 (nucleic acid)
chain: TGCTGTTGACAGTGAGCGCGCGACTCCTATAATTTCTAATTAGTGAAGCCACAGATGTAATTAGAAATTATAGGAGTCGCTTGCCTACTGCCTCGGA
change in tumor volumes [1]: stopped growing or regressed | effect on colony formation [2]: antiproliferative | competition with uninfected GFP-negative cells (Hepa1.6 cells): outcompeted by uninfected, GFP-negative cells
